Data reported in JPH11332563A (dated 1999).

B1: 4H5 抗体 (monoclonal antibody produced by Mouse-Mouse hybridoma 4H5, FERM P-16807) (antibody, IgG1, V domains shown)
VH: QVQLQQSGPELVKPGASVKMSCKASGYTFTDYVINWLNQRTGQGLEWIGEIYPGSGSAYYNEMFKGKATLTADKSSNTAYMQLSSLTSEDSAVYFCARRGTGTGFAYWGRGTLVTVSA
VL: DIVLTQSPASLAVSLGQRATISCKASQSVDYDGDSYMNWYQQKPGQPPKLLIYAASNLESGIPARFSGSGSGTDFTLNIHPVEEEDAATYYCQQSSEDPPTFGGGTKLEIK
notes: also called 4H5 antibody; 抗ヒトCD4抗体 4H5
B2: キメラ 4H5抗体 (ヒトマウスキメラ抗CD4抗体, expressed from pG14H5 in COS7 cells) (antibody, V domains shown)
VH: B1 VH
VL: not shown

Legend:
[1] = target: T1, ヒト可溶性CD4 (human soluble CD4 prepared in Example 2, C-terminal FLAG-tag, from COS7 cells) (human, UniProt P01730 26-396); test: SPR (BIAcore 2000), soluble CD4 amine-coupled on CM5, antibody (50 ug/ml) as analyte
T1 construct: extracellular domain; no cleavage site is stated; also called ヒトCD4; CD4分子

[2] = target: T1, ヒト可溶性CD4 (human soluble CD4 prepared in …); test: SPR (BIAcore 2000), antibody amine-coupled on CM5, soluble CD4 as analyte

Binder	Kd [1] [nM]	koff [1] [s⁻¹]	kon [1] [M⁻¹ s⁻¹]	Kd [2] [nM]	fold higher binding affinity than 13B8.2抗体 (comparison of KD) [2] [fold]	koff [2] [s⁻¹]	kon [2] [M⁻¹ s⁻¹]
B1	0.808	5.33e-06	6600	1.71	~4.4	0.000231	135000
B2	1.24	2.92e-05	23600	–	–	–	–
